Data set [1] concerns bovine brain microvascular endothelial (BBME) cells. Kind of data set: Cellular uptake by flow cytometry in BBME cells. Particulars: F-Aβ40 and AF633-Trf simultaneously, cells trypsinized. (In general: In flow cytometry, cells or beads pass a laser one at a time.)
Procedure: Bovine brain microvascular endothelial (BBME) cells were obtained frozen from Cell Applications Inc. (San Diego, CA) and were grown in 75 cm^2 cell culture flasks coated with collagen. The growth medium was made of equal parts DMEM and F-12 Ham nutrient mix containing amphotericin B (2.5 µg/ml), HEPES (10 mM), donor horse serum (10%), penicillin (100 units/ml), and gentamicin sulphate (15 µm/ml). After reaching 70–80% confluency, the cells were harvested, seeded (80,000 cells/cm^2) on six-well cell culture plates coated with 0.01% rat tail collagen, and grown under 5% CO2 at 37°C.
(§1) In addition, flow cytometry studies were conducted to quantify the uptake of F-Aβ40 or F-Aβ42 and AF633-Trf by PC12 cells and BBME cells at 4°C or under ATP depleted conditions. At the end of these flow cytometry experiments, the cells were washed three times with ice-cold PBS, trypsinized, and centrifuged at 2000 ×g. The cell pellet was washed with and re-suspended in ice cold PBS, and analyzed.
(§2) FACScan (Becton Dickinson FACS canto, San Jose, CA) was equipped with 488 nm laser and 530/30 band-pass filter to analyze F-Aβ40 or F-Aβ42 as well as 633 nm laser and 660/20 band-pass filter to analyze AF633-Trf. […] The cellular fluorescence from this cell population was presented as histograms along with relevant statistical values such as geometric mean and coefficient of variance.
Data set [2] relates to differentiated PC12 cells.
The subject of data set [3] is differentiated PC12 cells. Put plainly: Cellular uptake and localization by microscopy in differentiated PC12 cells. Particulars: F-Aβ40 and AF633-Trf co-incubated, confocal.
Data set [4] relates to differentiated PC12 cells. Put plainly: Cellular uptake by flow cytometry in differentiated PC12 cells. The note with it: for Uptake at 4°C versus 37°C (histograms of cellular fluorescence), F-Aβ42 experiment: 15 µg/ml F-Aβ42 and 20 µg/ml AF633-Trf, 30 min, cells trypsinized.
Procedure: Rat PC12 cells were plated on glass coverslips or coverslip-bottomed dishes and cultured in DMEM supplemented with: 10% fetal bovine serum, 5% horse serum, 4 mM glutamine, 200 units/ml penicillin, 200 µg/ml streptomycin, and 100 ng/ml nerve growth factor (NGF) (Harlan, Indianapolis, IN) at 37°C under 5% CO2. Uptake studies were conducted 5–7 days after plating, when the cells were well differentiated and the neurite growth was prominent.
The PC12 cells were dispersed in growth medium containing 100 ng/ml NGF (Harlan Bioproducts, Indianapolis, IN) and seeded at a density of 50,000/well in 6-well plates. On the seventh day, following sets of experiments were conducted on the differentiated PC-12 cells:
• To determine the linearity of F-Aβ40 uptake, PC-12 cells were pre-incubated in serum free DMEM for 30 min at 37°C and then incubated with DMEM solution containing 3–15 µg/ml F-Aβ40 for 30 min at 37°C. • To determine the saturability of F-Aβ40 uptake, the PC-12 cells were pre-incubated in 150 µg/ml of unlabeled Aβ40 for 30 min at 37°C, followed by a 30 min incubation in the same solution spiked with 15 µg/ml F-Aβ40.
At the end of these experiments, the cells were dissociated with trypsin and centrifuged at 2000 ×g. The cell pellet was washed with and re-suspended in ice cold PBS and analyzed by flow cytometry.
To examine the effect of temperature and cellular energy on the internalization of F-Aβ40 and F-Aβ42, the uptake studies were conducted at 4°C or under ATP depleted conditions. In the studies conducted at 4°C, steps outlined previously to investigate clathrin mediated endocytosis were repeated, but at 4°C. In ATP depletion studies, the PC12 cells or RPH neurons were pre-incubated for 30 min in glucose free DMEM containing 0.1% sodium azide and 50 mM 2-deoxy-D-glucose followed by the incubation with glucose free DMEM containing 20 µg/ml AF633-Trf and 15 µg/ml F-Aβ40 for 30 min at 37°C.
as §1, §2
The test system of data set [5] is differentiated PC12 cells. Particulars: cited from earlier work.
The test system of data set [6] is wild type (WT) mouse brain slices. Particulars: cited from earlier work.
Procedure: The uptake of ^125I-Aβ40 in WT mouse brain slices at 4 or 37°C was determined following 15 min incubation in oxygenated KRB containing 5–900 ng/ml (0.02–3.5 µCi/ml) concentrations of ^125I-Aβ40. The 15 min incubation time was selected based on our earlier observations that ^125I-Aβ40 uptake in the brain slices was linear up to 15 mi ...

On to “AF633-Trf: Alexa Fluor 633 labeled transferrin, a clathrin mediated endocytosis marker [reference compound]”, for which, in data set [1], the “Cellular uptake in BBME cells at 4°C compared to 37°C (fluorescence intensities)” value is listed as “decreased significantly”. In addition, in data set [2], the “Uptake in ATP depleted cells versus normal cells (microscopy)” value is “no detectable”. For the same substance, in data set [3], the “Cellular location after 15 min incubation” value is recorded as “juxta-nuclear region”. In addition, the “Uptake at 4°C versus 37°C (histograms of cellular fluorescence), F-Aβ42 experiment” value in data set [4] is given as “significantly lower”.
As to F-Aβ42: fluorescein labeled Aβ42, the “Uptake at 4°C versus 37°C (histograms of cellular fluorescence), F-Aβ42 experiment” value in data set [4] is on record as “not significantly different”.
F-Aβ40: fluorescein labeled human Aβ40: in data set [1], the “Cellular uptake in BBME cells at 4°C compared to 37°C (fluorescence intensities)” value is “decreased significantly”. The “Uptake in cells treated with filipin, inhibitor of caveolae mediated endocytosis” value in data set [2] was “not significantly affected”. Besides, in data set [3], the “Cellular location after 15 min incubation” value is “mainly confined to the cell membrane”. In addition, in data set [3] (45 min), the “Cellular location at the end of 45 min incubation” value is listed as “appeared to move into the cytosol”. Moreover, the “Intensity in the cells by the end of 60 min incubation” value in data set [3] (60 min) is listed as “increased substantially”. Moreover, the “Fluorescence intensity on co-incubation with unlabeled Aβ40 compared to F-Aβ40 alone (saturability)” value in data set [4] (150 µg/ml unlabeled Aβ40 + 15 µg/ml F-Aβ40 vs 15 µg/ml F-Aβ40 alone, 37°C) is given as “decreased”. In addition, the “Dependence of accumulation on donor concentration” value in data set [4] (donor concentrations 3-15 µg/ml, 30 min at 37°C) is “linear with the donor concentrations”.
Turning to “125I-Aβ40: human Aβ40 labeled with 125I using the chloramine-T procedure”, in data set [5], the “Dependence of internalization by differentiated PC12 cells on donor concentration” value was “linearly dependent upon the donor concentration” and the “Internalization by differentiated PC12 cells at 4°C” value is “internalized even at 4 °C”. Moreover, the “Time course of uptake in brain slices” value in data set [6] was “linear up to 15 min”.
